In the nanobody polyreactivity screen of Harvey et al. (2022):

Test: yeast display, Sf9 membrane polyspecificity reagent, FACS + sequencing; frameworks hold sequencing errors
Summary of the method: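 Galactose induction of a Saccharomyces cerevisiae BJ5465 synthetic nanobody display library ran 36–48 hours. The cells were then stained for 1 hour at 4 °C with 10% biotinylated, detergent-solubilized Sf9 membrane reagent, pulled down on streptavidin microbeads and FACS-sorted into low and high (top ~1%) gates on expression and reagent-binding fluorescence. Labels for polyreactivity follow the gate of origin.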

Row | Sequence | polyreactivity (PSR sort gate)
1 | QVQLVESGGGLVQAGGSLRLSCAASGGTFRVYAMGWYRQAPGKERELVAAITGRGGSTYYADSVKGRFTISRDNAKNTVYLQMNSLKPEDTAVYYCAAQAYWDFGSVARRDSWGQGTQVTVSS | low polyreactivity
2 | QVQLVESGGGLVQAGGSLRLSCAASGGTFSDNAMGWYRQAPGKERELVADIDIGGITYYADSVKGRFTISRDNAKNTVYLQMNSLIPEDTAVYYCAAVTTYYYYDVTDYAYEYYYWRQGTQVTVSS | low polyreactivity
3 | QVQLVESGGGLVQAGGSLRLSCAASGGTFSFYTMGWYRQAPGKERELVAAISRSGGRTYYADSVKGRFTISRDHAQNTVYLQMNSLKPEDTAVYYCAAERFSNIYTTMGYWGQGTQVTVSS | high polyreactivity
4 | QVQLVESGGGLVQAGGSLRLSCAASGGTFSSNAMGWYRQAPGKERELVAAISGSGDRTYYADSVKGRFTISRDNAKNTVYLQMNSLKPEDTAVYYCAAEHETGAYYYWGQGTQVTVSS | high polyreactivity
5 | QVQLVESGGGLVQAGGSLRLSCAASGGTFSTYAMGWYRQAPGKERELVAAISSTGGSTYYADSVKGRFTISRDNAKNTVYLQMNSLKPEDTAVYYCAAYYSRGWLLYWDEMYYWGQGTQVTVSS | high polyreactivity
6 | QVQLVESGGGLVQAGGSLRLSCAASGGTFTFKTMGWYRQAPGKERQLVAAISISGGSTYYADSVKGRFTISRDNAKNTVYLQMNSLKPEDTAVYYCAAQYVRTPSPEYDYWGQGTQVTVSS | high polyreactivity
7 | QVQLVESGGGLVQAGGSLRLSCAASGGTFTFYAMGWYRQATGKERELVATINWSGGSTYYADSVKGRFTISRDNAKNTVYLQMNSLKPEDTAVYYCNAAWPYKSVEYWGQGTQVTVSS | low polyreactivity
8 | QVQLVESGGGLVQAGGSLRLSCAASGGTFTYYTKGWYRQAPGKERELVAAISTGGRTYYADSVKGRFTISRDNAKNTVYLQMNSLKPEDTAVYYCNADYDETDVLGEFDYWGQGTQVTVSS | low polyreactivity
9 | QVQLVESGGGLVQAGGSLRLSCAASGGTFVANTMGWYRQAPGKERELVAAITWSGGRTYYADSVKGRFTISRDNAKNTVYLQMNSLKPEDTAVYYCNADYYRKAESSPEGYDYWGQGTQVTVSS | high polyreactivity
10 | QVQLVESGGGLVQAGGSLRLSCAASGGTFVLNAMGWYRQAPGKERELVATISSGGGTDYADSVKGRFTISRDNAKNTVYLQMNSLKPEDTAVYYCNTDYILWGDYDYWGQGTQVTVSS | low polyreactivity
11 | QVQLVESGGGLVQAGGSLRLSCAASGGTFVTYAMGWYRQAPGKERELVAAITTGGSTYYADSVKGRFTISRDNAKNSVYLQMISLKPEDTAVYYCAAVYTGSGKRYYKGYYWGQGTQVTVSS | low polyreactivity
12 | QVQLVESGGGLVQAGGSLRLSCAASGGTFVVYAMGWYRQAPGKEREFVAGISWGGGRTYYADSVKGRFTISRDNAKNPVYLQMNSLKPEDTAVYYCAVRREIQYYRKFDYWGQGTQVTVSS | low polyreactivity
13 | QVQLVESGGGLVQAGGSLRLSCAASGGTFVYNAMGWYRQAPGKERELVAAIRVRGDTTYYADSVKGRFTISRDNAKNTVYLQMNSLKPEDTAVYYCAAYPDYSYYYWGQGTQVTVSS | high polyreactivity
14 | QVQLVESGGGLVQAGGSLRLSCAASGGTFVYYAMGWYRQAPGKERELVAAISGSGGRTYYADSVKGRFTISRDNAKNTVYLQMNSLKPEDTAVYFCAAVHLNRYWGQGTQVTVSS | high polyreactivity
15 | QVQLVESGGGLVQAGGSLRLSCAASGGTFVYYTMGWYRQAPGKERELVAAISGRGGRTYYADSVKGRFTISRDNAKQTVYLQMNSLKPEDPAVYYCTATQIGPYYLPFDSWGQGTQVTVSS | high polyreactivity
16 | QVQLVESGGGLVQAGGSLRLSCAASGGTFWIYAMGWYRQAPGKERELVAGISHGDSTYYADSVKGRFTISRDNAKNTVYLQMNSLKPEDTAVYYCARDYRNPPFAYEYWGQGTQVTVSS | low polyreactivity
17 | QVQLVESGGGLVQAGGSLRLSCAASGGTFWKYPMGWTRQAPGKERELVAAITWSGSSTYYADSVKGRFTISRDNAKNTVYLQMNSLKPEDTAVFYCAARYQPRKGAHYGYWGQGTQVTVSS | high polyreactivity
18 | QVQLVESGGGLVQAGGSLRLSCAASGGTFWSYAMGLYRQAPGKEREFVAAITTSAGRTNFADSVKGRFTISRDNAKNTFYLQMNSLKPEDTAVYYCAARSAYPGLGYGFDYWGQGTQVTVSS | low polyreactivity
19 | QVQLVESGGGLVQAGGSLRLSCAASGGTFYGYAMGWYRQAPGKERELVAASNYRGGRTYYADSVKGRFTISRDNAKNTGYLQMNSLKPEDTAVYYCAATSYRLDGYDYWGQGTQVTVSS | high polyreactivity
20 | QVQLVESGGGLVQAGGSLRLSCAASGGTFYHNVMGWYRQAPGKERELVAAIRYSGGRTYYADSVKGRFTISRDNAKNTVYLQMNSQKPEDTAVYYCAVRSYYGPFGYWGQGTQVTVSS | high polyreactivity
21 | QVQLVESGGGLVQAGGSLRLSCAASGGTFYHYAMGWYRQAPGKERELVAAISWGGGSTYYADSVKGRFTISRDNAKNTVYLQMNSLKPEHTAVYYCAARRGFRFRDYYWGQGTQVTVSS | high polyreactivity
22 | QVQLVESGGGLVQAGGSLRLSCAASGGTFYKYAMGWYRQAPGKERELVAAISRSGGSTYYADSVKGRFTISRDNAKNTVYLQMNSLKPEDTAVYYCNAYGSYWDFDYWGQGTQVTVSS | high polyreactivity
23 | QVQLVESGGGLVQAGGSLRLSCAASGGTFYLNAMGWYRQAPGKERELVAAISKRSSTTYYADSVKGRFTISRDNAKNTVYLQMNSLKPEDTAVYYCAAEYFDWWVTYDYWGQGTQVTVSS | high polyreactivity
24 | QVQLVESGGGLVQAGGSLRLSCAASGGTFYPYAMGWYREAPGKEWELVAAISTSGGITYYADSVKGRFTISRDNAKNTVYLQMNSLKPEDTAVYYCAKVLRDYYTYYRWQYREFGYWGQGTQVTVSS | high polyreactivity
25 | QVQLVESGGGLVQAGGSLRLSCAASGGTFYTNVMGWYRQAPGKERELVAAITRSGGSTHYADSVKGRFTISRDNAKNTVYLQMNSLKPEDTAVYYCAVGSPYYDGMDYWGQGTQVTVSS | low polyreactivity
26 | QVQLVESGGGLVQAGGSLRLSCAASGGTFYTYAMGWYRQAPGKERELVAAISRSGGRTYYADSVKGRFTISRDNAKNTVYLQMNSLKPEDTAVYYCAAVRIARAVQDYDYWGQGTQVTVSS | high polyreactivity
27 | QVQLVESGGGLVQAGGSLRLSCAASGGTFYVYAMGWYRQAPGKERELVAAISTSDGITYYADSVKGRFTISRDNAKNTVYLQMNSLNPEDTAVYYCAAVFFSSFTYAYDYWGQGTLVTVSS | high polyreactivity
28 | QVQLVESGGGLVQAGGSLRLSCAASGGTIAYNAMGWYRQAPGKERELVAAISSSGGRTYYADSVKGRFTISRDNAKNTVYLQMNSLKPEDTAVYFCATPVNNGFDYWGQGTQVTLSS | high polyreactivity
29 | QVQLVESGGGLVQAGGSLRLSCAASGGTIDNAMGWYRQAPGKERELVAAISKHGGRTYYADSVKGRFTISRDNAKNTVYLQMNSLKAEDTAVYYCAADAFRGFFWGQGTQVTVSS | high polyreactivity
30 | QVQLVESGGGLVQAGGSLRLSCAASGGTIEYYAMGWYRQAPEKERELVAAISVSGGRTYYADSVKGRFTISRDNAKNTVYLQMNSLKPEDTAVYYCATDSRLWGQGTQVTVSS | high polyreactivity
